From IntAct's records for PubMed 16407074

B1: Mortality factor 4-like protein 1 (Homo sapiens), Q9UBU8-2 (parent)
chain: MAPKQDPKPKFQEGERVLCFHGPLLYEAKCVKVAIKDKQVKYFIHYSGWNKNWDEWVPESRVLKYVDTNLQKQRELQKANQEQYAEGKMRGAAPGKKTSGLQQKNVEVKTKKNKQKTPGNGDGGSTSETPQPPRKKRARVDPTVENEETFMNRVEVKVKIPEELKPWLVDDWDLITRQKQLFYLPAKKNVDSILEDYANYKKSRGNTDNKEYAVNEVVAGIKEYFNVMLGTQLLYKFERPQYAEILADHPDAPMSQVYGAPHLLRLFVRIGAMLAYTPLDEKSLALLLNYLHDFLKYLAKNSATLFSASDYEVAPPEYHRKAV

Variants of: B1
Conditions: with mr1l1_human MRFAP1L1, Q96HT8
Sequence of mr1l1_human MRFAP1L1, Q96HT8 (Q96HT8 whole entry): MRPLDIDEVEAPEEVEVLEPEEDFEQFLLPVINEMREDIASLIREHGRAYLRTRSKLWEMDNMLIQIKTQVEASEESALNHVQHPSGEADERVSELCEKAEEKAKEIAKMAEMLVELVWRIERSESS

Row | Variant | effect of a mutation on the interaction
1 | V169E | disrupting interaction

Variants of: B1
Conditions: with mrgbp_human MRGBP

Row | Variant | effect of a mutation on the interaction
2 | L291A | disrupting interaction strength
